According to the nanobody polyreactivity screen of Harvey et al. (2022):

Assay: yeast display, Sf9 membrane polyspecificity reagent, FACS + sequencing; frameworks hold sequencing errors
Summary of the method: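 After 36–48 hours of galactose induction, yeast (Saccharomyces cerevisiae BJ5465) displaying a synthetic nanobody library were stained at 4 °C for 1 hour with 10% biotinylated, detergent-solubilized Sf9 membrane reagent. Streptavidin microbeads enriched the stained cells before FACS sorting into low and high (top ~1%) gates on anti-HA and streptavidin fluorescence. Each clone's polyreactivity label reflects its gate of origin.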

Row | Sequence | polyreactivity (PSR sort gate)
1 | QVLLVESGGGLVQAGGSLRLSCAATARNFKYNTMGWYRQAPGKERELVAAISISGGSTYYADSVKGRFRISRDNSKNTVYLQMNSLKPEDTAVYYCNADTTYLSDYVTFAYWGQVTQVTVSS | low polyreactivity
2 | QVLLVESGGGLVQAGGSLRLSCAATGSIFVGYVMGWYRQAPGKERELVAAISRSGGRTYYADSVKGRFTISRDNAKNTVYLQMNSLKPEDTAVYYCAVRHRFYTAGYDYWGQGTQVTVSS | low polyreactivity
3 | QVLLVESGGGLVQAGGTLRLSCADSGFTFVTYGMGWYRQEPGKERELVARISSSSTNYADSVKGRFTISRDNAKNTVYLQMKSLKPEDTEVYYCAAVHYRWWYRSAYDFWGQGTQVTVSS | low polyreactivity
4 | QVLLVESGVGLVQAGGSLRLSCAASGRIFKLYAMGWYRQAPGKERELVAAITRRGGSTSYADSVKGRFTISRDNAKNTVYLQMNSLKPEDTAVYYCAASYTGRTVVQGYEYWGQGTQVTVSS | high polyreactivity
5 | QVLLVESGVGLVQAGGSLRLSCASSGFTFYRNAMGWYRQAPGKERELVASISRSGGSTYYADSVKGRFTISRDNAKNTVYLQMNSLKPEDTAVYYCAADLWWIYPHKYYYWGQGTQVTVSS | high polyreactivity
6 | QVNLVESGGGLVQAGGSLRLSCAASGIIFIAYAMRWYRQAPGKERELVADISIGGSTNYADSVKGRFTISRDNAKNTVYLEMNSLKPEDTAVYYCNAGGGFYGSTVEHDYWGKGTQVTVSS | low polyreactivity
7 | QVPIVESGGGLVQAGGSLRLSCAAYGIIFRLNAMGWNTQAPGKERELVAAITRRGGTTYYADSVKGRFTISRDNAKNTVYLQMNSLKPEDTAVYYCNTFYYWQYDWGQGTQVTESS | high polyreactivity
8 | QVPLVESGGGLGQAGGSLRLSCGASGSIFSLYAMGWSRLAPGKEREVVASLTWRGDSTYYADSVTGRFTISRDNAKNTVYLQMNSLKPEDTAVYNCNAVYYYAEPTSFGGYDYWGQGTQVTVSS | low polyreactivity
9 | QVPLVESGGGLLQAGGSLRISCAASGSIFTRNAMGWYRPAPGKERELVAAISRRGVSTYYADSVKGRFTISRDNAKNTVYLQMNSLKPEDTAVYYCTARSPMYRTTYDYWGQGTQVTVSS | high polyreactivity
10 | QVPLVESGGGLVEAGGSLRLSCDASGGIFRGYAKGWYRQAPGKERDLVAAISRGGGSTYYADSVKGRFTISRDNAKNTVYLQLNSLKPEDTAVYYCAAIYTRVYDPVTEFYYWGQGTQVTVSS | high polyreactivity
11 | QVPLVESGGGLVLAGGSLRLSCAASGSTVDDNAMGWYRQAPGKVRELVAGISTNGGSTSYADSVKGRITISRDNAKNTVYLQMNSRKPEHTAVYYSAKGLYVQFDYWGQGTQVTVSS | low polyreactivity
12 | QVPLVESGGGLVQAGGSLRLSCAASGFTFFSHAMGWYSQAPGKDRELVAAITTNGGSTYYADSVKGRFTISRDNAKNTVYVQITSLKPEDTAVYYCAADYSLPWSWLYEYWGQGTQVTVSS | low polyreactivity
13 | QVPLVESGGGLVQAGGSLRLSCAASGFTFTPYGMGWYRPAPGKERELVAAITWNGGRTYYADSVKGRFTISRDNAKNTVYLQMNSLKPEDTAVYYCAAVAWSWQKRGYWGQGTQVTVSS | high polyreactivity
14 | QVPLVESGGGLVQAGGSLRLSCAASGRIFGYYARGWYRQAPGKDRELVASIRRGTRTNYADSVKGRFTISRDNAKNTVYLQMNSLKPEDTAVYYGAATRFQFTTTPWYDYWGQGTQVTVSS | high polyreactivity
15 | QVPLVESGGGLVQAGGSLRLSCAASGRIFSSYAMGWYRQAPGKERELVAAISSRGGSTYYADSVKGRFTISRDNAKNTVYLQMNSLKPEDTAVYYCARVKYSGVVYKYDYWGQGTQVTVSS | high polyreactivity
16 | QVPLVESGGGLVQAGGSLRLSCAASGRTFGRYAMGWYRQTHGKERELVASISWRGGSTYYADSVKGRFTISRDYAKNTVFLQMNSLKPEDTAVYYCAVRFLTYWHGSYWYDYWGQGTQVTVSS | high polyreactivity

Row | Sequence | polyreactivity (PSR sort gate)
17 | QVPLVESGGGLVQAGGSLRLSCAASGRTFRPYALGWYRQAPGKERELVATISGGGSTYYADSVKGRFTISRDNAKNSLYLQLNSLKPEETAFYYCAKVLTYGGVSYISRMDYWGQATQVTVSS | low polyreactivity
18 | QVPLVESGGGLVQAGGSLRLSCAASGSTFRRYGMGWYREAPGKERELFAAISKGGTRTYYADSVKGRFTISRDNAKNTVYLQMNSLKPEDTAVYYCNKAWYAYGPVYASWYGEYDYWGLGTQVTVSS | high polyreactivity
19 | QVPLVESGGGLVQAGGSLRLSCAASGSTLAGYTMGWYRQAPGKERELVAAITWSGSSTYYADSVKGRFTISRDNAKNTVYLQMNSLKPEDTAVYYCAATYYVYSGGNYLRYDSWGQGTQVTVSS | high polyreactivity
20 | QVPLVESGGGLVQAGGSLRLSCAASGSTQNRYAMGWYRQAPGKEREFVAAITWRGGSTYADSVKGRFTISRDNAKTTVYLQMYSLKPEDTAVYYCAAQGYKQRVHYDYWGQGNQVTVSS | high polyreactivity
21 | QVPLVESGGGLVQAGGSLRLSCAASGYIFEKYAMGWYRHAPGKERELVAAITVTGASTYYADSVKGRFTSSRDNAKNTVYLQMNSLKPEDTAVYYGAAKTLSVGYVDPDYGRDYWGQGTQLTVSS | low polyreactivity
22 | QVPLVESGGGVVQAGGSLRLSCAASGRTYRWNVMGWYRQAPGKERELVATISRRSGSTNYADSVKGRFTISRDNAKNTVYLQINSLKPEDTAVYYCNTDTYFPLYDYWGQGTQVTVSS | low polyreactivity
23 | QVPRVESGGGLVQAGGSLRLSCAASGFTFRFYDMGWYRQARGNERELVAAISWSGTSTYYADSVKGRFTISRDNAKNTVYLQMNSLKPEETAVYYCAADIIGYEFDYWGQGTQVTVSS | high polyreactivity
24 | QVQFVDSGAGLVQAGGSLRLSCAASGSTLTTNAMGWYRQAPGKERELVAAISWRGGPTYYADSVKGRFTISRDIAKNTVYLQMNSLKPEDTAVYYCAADYTRSAYDYWGQGTQVTVSS | high polyreactivity
25 | QVQHEDSGGGLVQAGGSLRLSCAASGRIFSFYTMGWYRQAPGKERELVAAISGSGGSTYYADSVKGRFTISRDNAKNTVYLQMNSLKPEDTAVYYCARRRQRGGVNYWGQGTQVTVSS | high polyreactivity
26 | QVQHEESGGGLDQPGGSLRLTCAASGRIFNGYKMGWYRKAPGKETEFVDTISRSGGSTYYADSVKGRFTISRDNAKNSVYLQMNSLKPEDTAVYYCAKSYPDKWEYDYWGQGTQVTVSS | low polyreactivity
27 | QVQHEESGGGLVQAGGSLRLSCAASGIIFYYYALGWYRQAPGKERELVAAITGTGSRTYYADSVKGRFTISRDNAKNTVYLQMNSLKPEDTAVYYCNARSFATGSKVPARGYWGHGTQVTVSS | high polyreactivity
28 | QVQHEESGRALVQAGGSLRLSCPPSGTTGIYAIGWYRQAPGKERELVAAITRRAGSTYYADSVKGRFTISRDNAKNRVYLLMTSLKPEDTAVYDCNATRGTATAYYYRWAGGYWGQGTQVTVSS | low polyreactivity
29 | QVQHEESGRGLVQAGGSLRLSCAASGINCVYYAMGCYRQAPGKERELVAAISKNGGSTYYADSVKGRFTISRDNAYNTVYLQMNSLKPEDTAVYYCAAEEGYRWVRYNYWGQGTQVTVSS | high polyreactivity
30 | QVQHLESGGGLVQAGGSLRLSCVASGLTQPYAMRWYRQAPGKERQLVAAITGGDGSTTYADSVKGRFTISRVNAKNTVYLQMNSLKPEDTAVYYCNADTARKYAESQFYHWGQGTQVSVSS | low polyreactivity
31 | QVQHLESGGGLVQAGRSLRLSCAASGSTFITNTMGWYIKATGKERELLAAISKSGGSTYYADSVKGRFTISRDNAKNTVYLQMNSLKPEDTAVYYCAADIYVRDRGVKYDYWGQGTQVTVSS | low polyreactivity
